Source: patent publication US20230287131A1 (ORIONIS BIOSCIENCES, published 2023)

T1: soluble hTNF-R1 (Peprotech) (human, UniProt P19438 30-211)
T1 construct: extracellular domain; also called p55
T1 sequence (looked up): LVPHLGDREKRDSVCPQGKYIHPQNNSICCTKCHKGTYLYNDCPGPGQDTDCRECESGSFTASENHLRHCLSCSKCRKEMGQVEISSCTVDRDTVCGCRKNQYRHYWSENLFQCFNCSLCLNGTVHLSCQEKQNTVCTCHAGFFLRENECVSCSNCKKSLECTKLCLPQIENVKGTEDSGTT

T2: soluble hTNF-R2 (Peprotech) (human, UniProt P20333 23-257)
T2 construct: extracellular domain; also called p75
T2 sequence (looked up): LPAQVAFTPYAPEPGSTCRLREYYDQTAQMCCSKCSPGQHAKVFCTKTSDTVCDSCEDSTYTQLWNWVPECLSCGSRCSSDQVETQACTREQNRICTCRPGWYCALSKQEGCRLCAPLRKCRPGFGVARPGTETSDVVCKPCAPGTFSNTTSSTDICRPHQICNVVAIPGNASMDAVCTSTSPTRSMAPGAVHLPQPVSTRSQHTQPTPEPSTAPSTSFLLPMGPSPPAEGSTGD


Experiments:
[1] = target: hTNF-R2 on Raji cells or PC60-hTNFR2 cells (human) (UniProt P20333); test: cell-based or functional assay
[2] = target: T1, soluble hTNF-R1 (Peprotech); test: BLI (Octet RED96), affinity relative to WT hTNF
Method: (§1) KD values were calculated using global fitting with a 1:1 model (R²≥0.95).

[3] = target: T1, soluble hTNF-R1 (Peprotech); test: BLI (Octet RED96), His-tagged TNF on HIS1K biosensor, soluble receptor in solution, 1:1 global fit
Method: as §1

[4] = target: T2, soluble hTNF-R2 (Peprotech); test: as above
Method: as §1

OPRM1 mRNA expression in Raji cells (qPCR), against unstimulated cells [1] [fold]	% WT R1 [2] [%]	Kd [3] [µM]	Kd [4] [µM]	Molecule
5	–	–	–	BclI10 Nanobody (control) - 20xGGS - hTNF Y87H/A145R - 6xHis AcTakine
–	0.35	5.1	0.00478	hTNF mutant A145T E146D S147D (N-terminal 6xHis tag) (ligand) HHHHHHVRSSSRTPSDKPVAHVVANPQAEGQLQWLNRRANALLANGVELRDNQLVVPSEGLYLIYSQVLFKGQGCPSTHVLLTHTISRIAVSYQTKVNLLSAIKSPCQRETPEGAEAKPWYEPIYLGGVFQLEKGDRLSAEINRPDYLDFTDDGQVYFGIIAL
